# Laboratory results published in paper PMC12151457.
# Molecular target: Asp229 (UniProt position 204, GLPADDRVGDK)
# Assay: kinetics
# Conditions: 25 °C, 100 mM NaCl, 10 mM HEPES
# [1] = free enzyme (the authors interpret the pH dependence of kcat/KM as ionisation of the catalytic Asp in the substrate-free enzyme)
Substance,pKa [1],pKa (free enzyme (the authors state that kcat/KM reports ionisation in the substrate-free enzyme))
"V4-4 Kemp eliminase (V4 + L49I/G58Q/R230I/A257P/A262C) (synthetic construct (reconstructed ancestral class A beta-lactamase, GNCA node, last common ancestor of various Gram-negative bacteria); W229D;F290W;I250V;R256H;L260F;V261L;H291V;L49I;G58Q;R230I;A257P;A262C;insertion of extra C-terminal polypeptide segment (sequence not stated))",about 7,
"V4 Kemp eliminase (GNCA4-12 ancestral beta-lactamase scaffold with extra C-terminal polypeptide segment) (synthetic construct (reconstructed ancestral class A beta-lactamase, GNCA node, last common ancestor of various Gram-negative bacteria); W229D;F290W;I250V;R256H;L260F;V261L;H291V;insertion of extra C-terminal polypeptide segment (sequence not stated))",about 7,
"V4 Kemp eliminase (GNCA4-12 ancestral beta-lactamase-based de novo Kemp eliminase with an extra C-terminal polypeptide segment) (synthetic construct (reconstructed ancestral GNCA node beta-lactamase, last common ancestor of various Gram-negative bacteria); W229D;F290W;I250V;R256H;L260F;V261L;H291V;C-terminal polypeptide segment insertion)",,6.7
